Data as given in article PMC3274534.

Target: recombinant human adenovirus type 5 (E1 region replaced by lacZ cDNA), whole virus particles (human adenovirus type 5) (UniProt P04133)

## human coagulation factor X (zymogen) (natural protein)
  binding of the virus-hFX complex to heparan sulfate-coated plates (attached particles by real-time PCR), enhancement over virus alone; hFX at 0.008 and 0.05 mg/ml: 7.5 times
